Measured values taken from patent US6034071.

Target: FLAG epitope tagged adenylyl cyclase 2 (rat)

32P incorporated into purified F-AC2 after PMA treatment of the cells: 3 fold
Substance: protein kinase C (enzyme)
